How the values were obtained:
hMPV103 = molecular target: T1, hMPV103 (hMPV B, UniProt Q6WB98 19-102); experiment: BLI, no stress
T1 construct: E146C-T160C
Description: (§1) All measurements were conducted at 30° C. temperature in 96-well black plates (Corning, Corning, NY) with a final volume of 240 μL per well at a constant agitation rate of 1000 RPM.
(§2) Conformation integrity of hMPV B F protein mutants were evaluated by a thermal stress experiment. Crude cell culture supernatants were normalized based on the results of the titer quantitation and then incubated for 1 hour at room temperature and two higher temperatures. For the testing of hMPV B single mutants, the two temperatures were 53° C. and 56° C. After the incubation, the protein mutants were probed with prefusion specific monoclonal antibody hMPV-2 by OCTET HTX. Anti-Human IgG Fc Capture (AHC) biosensors were first equilibrated in PB before being dipped into more PB for to establish the initial baseline. Biosensors were incubated with hMPV-2 before being equilibrated in PB to establish the experimental baseline. The mAb-bound biosensors were then dipped into the thermal stresses cell culture supernatants for 5 minutes.

hMPV104 = molecular target: T2, hMPV104 (hMPV B, UniProt Q6WB98 19-102); experiment: BLI, no stress
T2 construct: A459P
Description: as §1, §2

hMPV B F WT Control = hMPV B F WT Control (hMPV B, UniProt Q6WB98 19-102); experiment: BLI, no stress
Description: as §1, §2

hMPV105 = molecular target: T3, hMPV105 (hMPV B, UniProt Q6WB98 19-102); experiment: BLI, no stress
T3 construct: G239A
Description: as §1, §2

hMPV107 = molecular target: T4, hMPV107 (hMPV B, UniProt Q6WB98 19-102); experiment: BLI, no stress
T4 construct: S149T
Description: as §1, §2

hMPV102 = molecular target: T5, hMPV102 (hMPV B, UniProt Q6WB98 19-102); experiment: BLI, no stress
T5 construct: L141C-A161C
Description: as §1, §2

hMPV108 = molecular target: T6, hMPV108 (hMPV B, UniProt Q6WB98 19-102); experiment: BLI, no stress
T6 construct: T365I
Description: as §1, §2

hMPV100 = molecular target: T7, hMPV100 (hMPV B, UniProt Q6WB98 19-102); experiment: BLI, no stress
T7 construct: T411C-Q434C
Description: as §1, §2

hMPV101 = molecular target: T8, hMPV101 (hMPV B, UniProt Q6WB98 19-102); experiment: BLI, no stress
T8 construct: A140C-S149C
Description: as §1, §2

hMPV106 = molecular target: T9, hMPV106 (hMPV B, UniProt Q6WB98 19-102); experiment: BLI, no stress
T9 construct: T49I
Description: as §1, §2

hMPV068 = molecular target: T10, hMPV068 (hMPV A, UniProt Q6WB98 19-102); experiment: BLI, 50C stress, vs WT Control
T10 construct: A159V
Description: (§3) The OCTET HTX (Sartorius, Gottingen, Germany) instrument was used to evaluate the expression and conformational integrity for each mutant. All measurements were conducted at 30° C. temperature in 96-well black plates (Corning, Corning, NY) with a final volume of 240 μL per well at a constant agitation rate of 1000 RPM.
(§4) Conformation integrity of hMPV A F protein mutants were evaluated by thermal stress experiments. Crude cell culture supernatants were normalized based on the results of the titer quantitation and then incubated for 1 hour at room temperature and two higher temperatures. […] Anti-Human IgG Fc Capture (AHC) biosensors were first equilibrated in PB before being dipped into more PB to establish the initial baseline. […] The mAb-bound biosensors were then dipped into the thermal stressed cell culture supernatants for 5 minutes. The kinetics analysis was done by OCTET data analysis software (version 12.0, Sartorius) based on curve fitting of the entire associate step.

hMPV071 = molecular target: T11, hMPV071 (hMPV A, UniProt Q6WB98 19-102); experiment: BLI, 50C stress, vs WT Control
T11 construct: T365I
Description: as §3, §4

hMPV058 = molecular target: T12, hMPV058 (hMPV A, UniProt Q6WB98 19-102); experiment: BLI, 50C stress, vs WT Control
T12 construct: L187P
Description: as §3, §4

hMPV069 = molecular target: T13, hMPV069 (hMPV A, UniProt Q6WB98 19-102); experiment: BLI, 50C stress, vs WT Control
T13 construct: S291I
Description: as §3, §4

hMPV A F WT Control = hMPV A F WT Control (hMPV A, UniProt Q6WB98 19-102); experiment: BLI, 50C stress, vs WT Control
Description: as §3, §4

hMPV049 = molecular target: T14, hMPV049 (hMPV A, UniProt Q6WB98 19-102); experiment: BLI, 50C stress, vs WT Control
T14 construct: E146C-T160C
Description: as §3, §4

hMPV067 = molecular target: T15, hMPV067 (hMPV A, UniProt Q6WB98 19-102); experiment: BLI, 50C stress, vs WT Control
T15 construct: S149T
Description: as §3, §4

hMPV055 = molecular target: T16, hMPV055 (hMPV A, UniProt Q6WB98 19-102); experiment: BLI, 50C stress, vs WT Control
T16 construct: N145P
Description: as §3, §4

hMPV048 = molecular target: T17, hMPV048 (hMPV A, UniProt Q6WB98 19-102); experiment: BLI, 50C stress, vs WT Control
T17 construct: L141C-A161C
Description: as §3, §4

hMPV077 = molecular target: T18, hMPV077 (hMPV A, UniProt Q6WB98 19-102); experiment: BLI, 50C stress, vs WT Control
T18 construct: Q476C, S477C
Description: as §3, §4

hMPV053 = molecular target: T19, hMPV053 (hMPV A, UniProt Q6WB98 19-102); experiment: BLI, 50C stress, vs WT Control
T19 construct: L110P
Description: as §3, §4

hMPV050 = molecular target: T20, hMPV050 (hMPV A, UniProt Q6WB98 19-102); experiment: BLI, 50C stress, vs WT Control
T20 construct: V148C-L158C
Description: as §3, §4

hMPV044 = molecular target: T21, hMPV044 (hMPV A, UniProt Q6WB98 19-102); experiment: BLI, 50C stress, vs WT Control
T21 construct: T411C-Q434C
Description: as §3, §4

hMPV059 = molecular target: T22, hMPV059 (hMPV A, UniProt Q6WB98 19-102); experiment: BLI, 50C stress, vs WT Control
T22 construct: V449P
Description: as §3, §4

hMPV066 = molecular target: T23, hMPV066 (hMPV A, UniProt Q6WB98 19-102); experiment: BLI, 50C stress, vs WT Control
T23 construct: T49I
Description: as §3, §4

hMPV052 = molecular target: T24, hMPV052 (hMPV A, UniProt Q6WB98 19-102); experiment: BLI, 50C stress, vs WT Control
T24 construct: L66P
Description: as §3, §4

PIV1069 = molecular target: T25, PIV1069 (PIV1); experiment: BLI, no stress
T25 construct: F113G, F114S, A466L, S473L, G134A
Description: (§5) Conformation integrity of PIV1 F protein mutants were evaluated by a thermal stress experiment. Crude cell culture supernatants were normalized based on the results of the titer quantitation and then incubated for 1 hour at room temperature and two higher temperatures. For the initial testing of PIV1 mutants, the two temperatures were 50° C. and 53° C. […] Anti-Human IgG Fc Capture (AHC) biosensors were first equilibrated in PB for before being dipped into more PB to establish the initial baseline. […] The mAb-bound biosensors were then dipped into the thermal stresses cell culture supernatants for 5 minutes.

[1] = molecular target: T26, PIV1 F literature prefusion comparison (PIV1); experiment: BLI, no stress
T26 construct: F113G, F114S, A466I, S473I (Stewart-Jones et al. 2018)
Description: as §5

PIV1070 = molecular target: T27, PIV1070 (PIV1); experiment: BLI, no stress
T27 construct: F113G, F114S, A466I, S473I, G134A
Description: as §5

PIV1042 = molecular target: T28, PIV1042 (PIV1); experiment: BLI, 53C stress;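 note: binding of thermally stressed PIV1 F mutant supernatant to mAb on AHC biosensors for 5 min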
T28 construct: Q92A
Description: as §1, §5

PIV1046 = molecular target: T29, PIV1046 (PIV1); experiment: BLI, 53C stress;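 note: binding of thermally stressed PIV1 F mutant supernatant to mAb on AHC biosensors for 5 min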
T29 construct: A466V, S473V
Description: as §1, §5

PIV1043 = molecular target: T30, PIV1043 (PIV1); experiment: BLI, 53C stress;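 note: binding of thermally stressed PIV1 F mutant supernatant to mAb on AHC biosensors for 5 min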
T30 construct: Q92A, G134A
Description: as §1, §5

PIV1045 = molecular target: T31, PIV1045 (PIV1); experiment: BLI, 53C stress;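 note: binding of thermally stressed PIV1 F mutant supernatant to mAb on AHC biosensors for 5 min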
T31 construct: Q92L, G134A
Description: as §1, §5

PIV1044 = molecular target: T32, PIV1044 (PIV1); experiment: BLI, 53C stress
T32 construct: Q92L
Description: as §1, §5

[2] = molecular target: stabilized hPIV3 F protein trimer in pre-fusion conformation (human parainfluenza virus 3); experiment: BLI, mAb captured, F protein at 50 nM
[3] = molecular target: T33, stabilized hPIV1 F protein trimer in pre-fusion conformation (human parainfluenza virus 1); experiment: BLI, mAb captured, F protein at 50 nM
T33 construct: also called preF-hPIV1; HPIV1 pre-fusion F protein

B1: hMPV-2 mAb (antibody, V domains shown)
VH: QVQLQQSGAEVKKPGASVKVSCKASGYTFTSYGISWVRQAPGQGLEWMGWISGYNGNTNYAQTFQGTFTMTTDTSTSTAYMELRRLRSGDTAVYYCARDRYYASGSYNGMDVWGQGTTVTVSS
VL: QSALTQPPSASGAPGQRVTVSCSGSSSNVGSSSVYWYQQLPGTAPKLLIYRNNQRPSGVPDRFSGSKSGTSASLAISGLRSEDEADYYCAAWDDSLSGWVFGGGTKLTVLG
notes: human IgG1
Response Shift (hMPV103): 0.814 nm | Response Shift (hMPV104): 0.85 nm | Response Shift (hMPV B F WT Control): 0.867 nm | Response Shift (hMPV105): 0.906 nm | Response Shift (hMPV107): 0.89 nm | Response Shift (hMPV102): 0.84 nm | Response Shift (hMPV108): 0.89 nm | Response Shift (hMPV100): 0.863 nm | Response Shift (hMPV101): 0.707 nm | Response Shift (hMPV106): 0.912 nm | Fold change vs WT (hMPV068): 1.6 fold | Fold change vs WT (hMPV071): 2.4 fold | Fold change vs WT (hMPV058): 1.7 fold | Fold change vs WT (hMPV069): 1.6 fold | Fold change vs WT (hMPV A F WT Control): 1 fold | Fold change vs WT (hMPV049): 1.9 fold | Fold change vs WT (hMPV067): 2.3 fold | Fold change vs WT (hMPV055): 0.7 fold | Fold change vs WT (hMPV048): 1.5 fold | Fold change vs WT (hMPV077): 2.2 fold | Fold change vs WT (hMPV053): 2 fold | Fold change vs WT (hMPV050): 0.5 fold | Fold change vs WT (hMPV044): 2.6 fold | Fold change vs WT (hMPV059): 1.6 fold | Fold change vs WT (hMPV066): 2.6 fold | Fold change vs WT (hMPV052): 2.2 fold

B2: PIV1-8 mAb (antibody, V domains shown)
VH: QVQLVQSGAEVKKPGSSVKVSCEASGGTFSNYVISWVRQAPGQGLEWMGGIIPVFATAKYAQKFQGRVTIIADQSTNTAYLELSSLRSDDTAVYFCASVDSGGTWWDAFAIWGQGTMVTVSS
VL: QAVVTQPRSVSGSPGQAVTISCTGTSSDVGGYNYVSWYQHHPGKAPKLIIYDVTKRPSGVPDRFSGSKSGNTASLTISGLQTEYEADYYCCSYAGSYTLVFGGGTKLTVLG
notes: human IgG1; also called hPIV1-8 mAb; hPIV1-8
Response Shift (PIV1069): 0.857 nm | Response Shift [1]: 0.769 nm | Response Shift (PIV1070): 0.876 nm | Response Shift (PIV1042): -0.052 nm | Response Shift (PIV1046): -0.059 nm | Response Shift (PIV1043): -0.012 nm | Response Shift (PIV1045): -0.054 nm | Response Shift (PIV1044): -0.007 nm | Binding response BLI [2]: -0.052 nm | Binding response BLI [3]: 1.96 nm

Reference: US20240252614A1 (Pfizer, published 2024)
